B1: CLEC6A (protein, UniProt Q6EIG7 1-209, looked up)
C-type lectin domain family 6 …: MMQEQQPQSTEKRGWLSLRLWSVAGISIALLSACFIVSCVVTYHFTYGETGKRLSELHSYHSSLTCFSEGTKVPAWGCCPASWKSFGSSCYFISSEEKVWSKSEQNCVEMGAHLVVFNTEAEQNFIVQQLNESFSYFLGLSDPQGNNNWQWIDKTPYEKNVRFWHLGEPNHSAEQCASIVFWKPTGWGWNDVICETRRNSICEMNKIYL
B2: LAMP3 (protein, UniProt Q9UQV4 28-416, looked up)
Lysosome-associated membrane …: KAFPETRDYSQPTAAATVQDIKKPVQQPAKQAPHQTLAARFMDGHITFQTAATVKIPTTTPATTKNTATTSPITYTLVTTQATPNNSHTAPPVTEVTVGPSLAPYSLPPTITPPAHTTGTSSSTVSHTTGNTTQPSNQTTLPATLSIALHKSTTGQKPVQPTHAPGTTAAAHNTTRTAAPASTVPGPTLAPQPSSVKTGIYQVLNGSRLCIKAEMGIQLIVQDKESVFSPRRYFNIDPNATQASGNCGTRKSNLLLNFQGGFVNLTFTKDEESYYISEVGAYLTVSDPETIYQGIKHAVVMFQTAVGHSFKCVSEQSLQLSAHLQVKTTDVQLQAFDFEDDHFGNVDECSSDYTIVLPVIGAIVVGLCLMGMGVYKIRLRCQSSGYQRI
B3: Gal-4 (protein, UniProt P56470 1-323, looked up)
Galectin-4: MAYVPAPGYQPTYNPTLPYYQPIPGGLNVGMSVYIQGVASEHMKRFFVNFVVGQDPGSDVAFHFNPRFDGWDKVVFNTLQGGKWGSEERKRSMPFKKGAAFELVFIVLAEHYKVVVNGNPFYEYGHRLPLQMVTHLQVDGDLQLQSINFIGGQPLRPQGPPMMPPYPGPGHCHQQLNSLPTMEGPPTFNPPVPYFGRLQGGLTARRTIIIKGYVPPTGKSFAINFKVGSSGDIALHINPRMGNGTVVRNSLLNGSWGSEEKKITHNPFGPGQFFDLSIRCGLDRFKVYANGQHLFDFAHRLSAFQRVDTLEIQGDVTLSYVQI
B4: FABP4 (protein, UniProt P15090 2-132, looked up)
Fatty acid-binding protein, …: CDAFVGTWKLVSSENFDDYMKEVGVGFATRKVAGMAKPNMIISVNGDVITIKSESTFKNTEISFILGQEFDEVTADDRKVKSTITLDGGVLVHVQKWDGKSTTIKRKREDDKLVVECVMKGVTSTRVYERA
B5: PILRB (protein, UniProt Q9UKJ0 20-227, looked up)
Paired immunoglobulin-like …: QPGGSTGSGPSYLYGVTQPKHLSASMGGSVEIPFSFYYPWELAIVPNVRISWRRGHFHGQSFYSTRPPSIHKDYVNRLFLNWTEGQESGFLRISNLRKEDQSVYFCRVELDTRRSGRQQLQSIKGTKLTITQAVTTTTTWRPSSTTTIAGLRVTESKGHSESWHLSLDTAIRVALAVAVLKTVILGLLCLLLLWWRRRKGSRAPSSDF
B6: GM-CSF-R-alpha (protein, UniProt P15509 23-400, looked up)
Granulocyte-macrophage …: EKSDLRTVAPASSLNVRFDSRTMNLSWDCQENTTFSKCFLTDKKNRVVEPRLSNNECSCTFREICLHEGVTFEVHVNTSQRGFQQKLLYPNSGREGTAAQNFSCFIYNADLMNCTWARGPTAPRDVQYFLYIRNSKRRREIRCPYYIQDSGTHVGCHLDNLSGLTSRNYFLVNGTSREIGIQFFDSLLDTKKIERFNPPSNVTVRCNTTHCLVRWKQPRTYQKLSYLDFQYQLDVHRKNTQPGTENLLINVSGDLENRYNFPSSEPRAKHSVKIRAADVRILNWSSWSEAIEFGSDDGNLGSVYIYVLLIVGTLVCGIVLGFLFKRFLRIQRLFPPVPQIKDKLNDNHEVEDEIIWEEFTPEEGKGYREEVLTVKEIT
B7: TDRKH (protein, UniProt Q9Y2W6 1-561, looked up)
Tudor and KH …: MSTERTSWTSLSTIQKIALGLGIPASATVAYILYRRYRESREERLTFVGEDDIEIEMRVPQEAVKLIIGRQGANIKQLRKQTGARIDVDTEDVGDERVLLISGFPVQVCKAKAAIHQILTENTPVSEQLSVPQRSVGRIIGRGGETIRSICKASGAKITCDKESEGTLLLSRLIKISGTQKEVAAAKHLILEKVSEDEELRKRIAHSAETRVPRKQPISVRREDMTEPGGAGEPALWKNTSSSMEPTAPLVTPPPKGGGDMAVVVSKEGSWEKPSDDSFQKSEAQAIPEMPMFEIPSPDFSFHADEYLEVYVSASEHPNHFWIQIVGSRSLQLDKLVNEMTQHYENSVPEDLTVHVGDIVAAPLPTNGSWYRARVLGTLENGNLDLYFVDFGDNGDCPLKDLRALRSDFLSLPFQAIECSLARIAPSGDQWEEEALDEFDRLTHCADWKPLVAKISSYVQTGISTWPKIYLYDTSNGKKLDIGLELVHKGYAIELPEDIEENRAVPDMLKDMATETDASLSTLLTETKKSSGEITHTLSCLSLSEAASMSGDDNLEDDYLL
B8: IL-6RA (protein, UniProt P08887 20-468, looked up)
Interleukin-6 receptor …: LAPRRCPAQEVARGVLTSLPGDSVTLTCPGVEPEDNATVHWVLRKPAAGSHPSRWAGMGRRLLLRSVQLHDSGNYSCYRAGRPAGTVHLLVDVPPEEPQLSCFRKSPLSNVVCEWGPRSTPSLTTKAVLLVRKFQNSPAEDFQEPCQYSQESQKFSCQLAVPEGDSSFYIVSMCVASSVGSKFSKTQTFQGCGILQPDPPANITVTAVARNPRWLSVTWQDPHSWNSSFYRLRFELRYRAERSKTFTTWMVKDLQHHCVIHDAWSGLRHVVQLRAQEEFGQGEWSEWSPEAMGTPWTESRSPPAENEVSTPMQALTTNKDDDNILFRDSANATSLPVQDSSSVPLPTFLVAGGSLAFGTLLCIAIVLRFKKTWKLRALKEGKTSMHPPYSLGQLVPERPRPTPVLVPLISPPVSPSSLGSDNTSSHNRPDARDPRSPYDISNTDYFFPR
B9: ATG4A (protein, UniProt Q8WYN0 1-398, looked up)
Cysteine protease ATG4A: MESVLSKYEDQITIFTDYLEEYPDTDELVWILGKQHLLKTEKSKLLSDISARLWFTYRRKFSPIGGTGPSSDAGWGCMLRCGQMMLAQALICRHLGRDWSWEKQKEQPKEYQRILQCFLDRKDCCYSIHQMAQMGVGEGKSIGEWFGPNTVAQVLKKLALFDEWNSLAVYVSMDNTVVIEDIKKMCRVLPLSADTAGDRPPDSLTASNQSKGTSAYCSAWKPLLLIVPLRLGINQINPVYVDAFKECFKMPQSLGALGGKPNNAYYFIGFLGDELIFLDPHTTQTFVDTEENGTVNDQTFHCLQSPQRMNILNLDPSVALGFFCKEEKDFDNWCSLVQKEILKENLRMFELVQKHPSHWPPFVPPAKPEVTTTGAEFIDSTEQLEEFDLEEDFEILSV
B10: CD40-L (protein, UniProt P29965 113-261, looked up)
CD40 ligand, soluble form: MQKGDQNPQIAAHVISEASSKTTSVLQWAEKGYYTMSNNLVTLENGKQLTVKRQGLYYIYAQVTFCSNREASSQAPFIASLCLKSPGRFERILLRAANTHSSAKPCGQQSIHLGGVFELQPGASVFVNVTDPSQVSHGTGFTSFGLLKL
B11: GSAP (protein, UniProt A4D1B5 1-854, looked up)
Gamma-secretase-activating …: MALRLVADFDLGKDVLPWLRAQRAVSEASGAGSGGADVLENDYESLHVLNVERNGNIIYTYKDDKGNVVFGLYDCQTRQNELLYTFEKDLQVFSCSVNSERTLLAASLVQSTKEGKRNELQPGSKCLTLLVEIHPVNNVKVLKAVDSYIWVQFLYPHIESHPLPENHLLLISEEKYIEQFRIHVAQEDGNRVVIKNSGHLPRDRIAEDFVWAQWDMSEQRLYYIDLKKSRSILKCIQFYADESYNLMFEVPLDISLSNSGFKLVNFGCDYHQYRDKFSKHLTLCVFTNHTGSLCVCYSPKCASWGQITYSVFYIHKGHSKTFTTSLENVGSHMTKGITFLNLDYYVAVYLPGHFFHLLNVQHPDLICHNLFLTGNNEMIDMLPHCPLQSLSGSLVLDCCSGKLYRALLSQSSLLQLLQNTCLDCEKMAALHCALYCGQGAQFLEAQIIQWISENVSACHSFDLIQEFIIASSYWSVYSETSNMDKLLPHSSVLTWNTEIPGITLVTEDIALPLMKVLSFKGYWEKLNSNLEYVKYAKPHFHYNNSVVRREWHNLISEEKTGKRRSAAYVRNILDNAVKVISNLEARNLGPRLTPLLQEEDSHQRLLMGLMVSELKDHFLRHLQGVEKKKIEQMVLDYISKLLDLICHIVETNWRKHNLHSWVLHFNSRGSAAEFAVFHIMTRILEATNSLFLPLPPGFHTLHTILGVQCLPLHNLLHCIDSGVLLLTETAVIRLMKDLDNTEKNEKLKFSIIVRLPPLIGQKICRLWDHPMSSNIISRNHVTRLLQNYKKQPRNSMINKSSFSVEFLPLNYFIEILTDIESSNQALYPFEGHDNVDAEFVEEAALKHTAMLLGL
B12: COCH (protein, UniProt O43405 25-550, looked up)
Cochlin: EGAAPIAITCFTRGLDIRKEKADVLCPGGCPLEEFSVYGNIVYASVSSICGAAVHRGVISNSGGPVRVYSLPGRENYSSVDANGIQSQMLSRWSASFTVTKGKSSTQEATGQAVSTAHPPTGKRLKKTPEKKTGNKDCKADIAFLIDGSFNIGQRRFNLQKNFVGKVALMLGIGTEGPHVGLVQASEHPKIEFYLKNFTSAKDVLFAIKEVGFRGGNSNTGKALKHTAQKFFTVDAGVRKGIPKVVVVFIDGWPSDDIEEAGIVAREFGVNVFIVSVAKPIPEELGMVQDVTFVDKAVCRNNGFFSYHMPNWFGTTKYVKPLVQKLCTHEQMMCSKTCYNSVNIAFLIDGSSSVGDSNFRLMLEFVSNIAKTFEISDIGAKIAAVQFTYDQRTEFSFTDYSTKENVLAVIRNIRYMSGGTATGDAISFTVRNVFGPIRESPNKNFLVIVTDGQSYDDVQGPAAAAHDAGITIFSVGVAWAPLDDLKDMASKPKESHAFFTREFTGLEPIVSDVIRGICRDFLESQQ
B13: IGFBP-2 (protein, UniProt P18065 36-325, looked up)
Insulin-like growth …: AEVLFRCPPCTPERLAACGPPPVAPPAAVAAVAGGARMPCAELVREPGCGCCSVCARLEGEACGVYTPRCGQGLRCYPHPGSELPLQALVMGEGTCEKRRDAEYGASPEQVADNGDDHSEGGLVENHVDSTMNMLGGGGSAGRKPLKSGMKELAVFREKVTEQHRQMGKGGKHHLGLEEPKKLRPPPARTPCQQELDQVLERISTMRLPDERGPLEHLYSLHIPNCDKHGLYNLKQCKMSLNGQRGECWCVNPNTGKLIQGAPTIRGDPECHLFYNEQQEARGVHTQRMQ
B14: CDIC (protein, UniProt P29017 18-333, looked up)
T-cell surface glycoprotein …: NADASQEHVSFHVIQIFSFVNQSWARGQGSGWLDELQTHGWDSESGTIIFLHNWSKGNFSNEELSDLELLFRFYLFGLTREIQDHASQDYSKYPFEVQVKAGCELHSGKSPEGFFQVAFNGLDLLSFQNTTWVPSPGCGSLAQSVCHLLNHQYEGVTETVYNLIRSTCPRFLLGLLDAGKMYVHRQVRPEAWLSSRPSLGSGQLLLVCHASGFYPKPVWVTWMRNEQEQLGTKHGDILPNADGTWYLQVILEVASEEPAGLSCRVRHSSLGGQDIILYWGHHFSMNWIALVVIVPLVILIVLVLWFKKHCSYQDIL

Test system: plasma proteins
Test: Plasma proteins modulated between baseline and day 28 in responders (CR, VGPR, PR; n = 19), Example 6 (Table 13)
Type: in vivo, human
Details: plasma protein (OLINK NPX); responders (CR, VGPR, PR; n = 19); itacitinib 200 mg or 300 mg QD with corticosteroids; day 28 vs baseline
Summary of the method: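 Longitudinal comparison, day 28 versus baseline, with steroid-naive (N=10) and steroid-refractory (N=18) patients combined. Proteins measured by OLINK proximity extension, log2 normalized protein expression. Differences tested by t tests, ANOVA, Pearson correlation, P<0.05 significant.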

Molecule	Fold Change, Decreased Expression from Baseline to Day 28	Fold Change, Increased Expression from Baseline to Day 28
B1	−1.3248	–
B2	−1.7705	–
B3	–	1.4274
B4	–	1.6926
B5	−1.3019	–
B6	−1.4489	–
B7	−1.2785	–
B8	−1.1901	–
B9	−1.3651	–
B10	−1.5868	–
B11	−1.4153	–
B12	−1.22	–
B13	−1.2058	–
B14	−1.5651	–

From patent publication US12099068B2, “Biomarkers for graft-versus-host disease” (Incyte Corporation, priority 2018, dated 2024)
